Laboratory results taken from the Human Domainome abundance scans (Beltran et al. 2025).
± gives the uncertainty stated by the source.

B1: Double-stranded RNA-binding protein Staufen homolog 1, residues 183 to 249; numbered along this chain, O95793 (parent)
chain: KSEISQVFEIALKRNLPVNFEVARESGPPHMKNFVTKVSVGEFVGEGEGKSKKISKKNAAIAVLEEL

Variants of: B1
Test: abundance fitness (aPCA) (normalised: wild type 0, dead -1); higher = more abundant; growth selection in yeast, the domain comes from the species named
Details: Homo sapiens

Abundance fitness: each site, then its substitutions
E42: F -0.355 ± 0.093 | G 0.011 ± 0.046 | C -0.161 ± 0.06 | L -0.255 ± 0.04 | I -0.407 ± 0.11 | A 0.016 ± 0.056 | M -0.1 ± 0.061 | P 0.053 ± 0.047 | H 0.014 ± 0.11 | D -0.137 ± 0.093 | K -0.046 ± 0.057
S39: M -0.056 ± 0.059 | C -0.064 ± 0.077 | F -0.099 ± 0.057 | G -0.55 ± 0.046 | Q -0.034 ± 0.054 | P -0.703 ± 0.08 | I -0.12 ± 0.08 | K -0.05 ± 0.051 | N -0.138 ± 0.069 | H -0.081 ± 0.066 | W -0.119 ± 0.053 | V -0.038 ± 0.046 | L -0.267 ± 0.041 | D -0.542 ± 0.074 | A -0.067 ± 0.041 | E -0.146 ± 0.062 | R 0.029 ± 0.035 | Y -0.051 ± 0.075
N33: G -0.221 ± 0.047 | F -0.29 ± 0.091 | R 0.008 ± 0.04 | W -0.054 ± 0.064 | Y -0.255 ± 0.13 | I -0.117 ± 0.073 | H 0.016 ± 0.11 | P -0.386 ± 0.064 | S -0.016 ± 0.053 | M -0.128 ± 0.061 | Q -0.047 ± 0.058 | V -0.115 ± 0.047 | T 0.052 ± 0.048 | E -0.269 ± 0.059 | L -0.072 ± 0.041 | K -0.011 ± 0.055
G41: H -0.737 ± 0.17 | Q -0.979 ± 0.13 | T -1.17 ± 0.11 | L -0.91 ± 0.07 | W -0.825 ± 0.12 | N -0.853 ± 0.2 | M -0.888 ± 0.095 | F -1.18 ± 0.21 | P -0.645 ± 0.095 | I -1.41 ± 0.36 | R -0.941 ± 0.06 | E -0.611 ± 0.074 | C -0.911 ± 0.14 | S -0.945 ± 0.062 | Y -1.13 ± 0.39 | D -0.761 ± 0.1
V40: S -0.703 ± 0.054 | T -0.541 ± 0.054 | D -0.577 ± 0.08 | I -0.514 ± 0.072 | Q -0.542 ± 0.056 | F -0.564 ± 0.088 | H -0.783 ± 0.14 | P -0.442 ± 0.057 | A -0.501 ± 0.051 | N -0.617 ± 0.092 | E -0.555 ± 0.058 | Y -0.809 ± 0.12 | M -0.312 ± 0.061 | K -0.851 ± 0.078 | W -1.3 ± 0.18 | L -0.199 ± 0.041 | C -0.289 ± 0.1 | G -0.681 ± 0.062 | R -0.811 ± 0.063
F34: C -0.547 ± 0.06 | V -0.541 ± 0.054 | I -0.372 ± 0.063 | T -0.428 ± 0.048 | R -0.74 ± 0.042 | N -0.468 ± 0.085 | E -0.56 ± 0.051 | P -0.458 ± 0.058 | L -0.698 ± 0.044 | G -0.554 ± 0.042 | Y 0.038 ± 0.07 | H -0.544 ± 0.081 | M -0.56 ± 0.05 | D -0.578 ± 0.083 | W 0.089 ± 0.053 | S -0.54 ± 0.045 | K -0.725 ± 0.071 | Q -0.447 ± 0.049
V38: I -0.168 ± 0.09 | F -0.352 ± 0.12 | T -0.481 ± 0.069 | N -0.445 ± 0.12 | M -0.231 ± 0.06 | Y -0.774 ± 0.11 | W -0.988 ± 0.092 | K -0.511 ± 0.071 | G -0.557 ± 0.057 | D -0.57 ± 0.097 | R -0.654 ± 0.047 | A -0.196 ± 0.052 | L -0.081 ± 0.039 | E -0.554 ± 0.076 | Q -0.704 ± 0.063 | P -0.67 ± 0.051 | S -0.46 ± 0.052
K37: W -0.442 ± 0.13 | V -0.345 ± 0.082 | A -0.293 ± 0.1 | C -0.251 ± 0.23 | G -0.758 ± 0.1 | T -0.364 ± 0.099 | I -0.529 ± 0.21 | Q -0.25 ± 0.15 | N -0.328 ± 0.2 | P -0.756 ± 0.12 | F -0.58 ± 0.28 | L -0.311 ± 0.077 | E -0.553 ± 0.099 | R 0.034 ± 0.059 | S -0.364 ± 0.12 | Y -0.681 ± 0.27 | H -0.292 ± 0.14
V35: S -0.111 ± 0.042 | I 0.046 ± 0.051 | H 0.029 ± 0.06 | T -0.02 ± 0.05 | D -0.511 ± 0.08 | W -0.186 ± 0.051 | M -0.083 ± 0.058 | F 0.033 ± 0.087 | L -0.021 ± 0.04 | P -0.502 ± 0.068 | G -0.497 ± 0.034 | Q -0.093 ± 0.059 | E -0.393 ± 0.042 | R 0.04 ± 0.037 | K 0.048 ± 0.066 | A -0.256 ± 0.039 | Y -0.174 ± 0.085 | N -0.35 ± 0.11
T36: Q -0.548 ± 0.059 | A -0.251 ± 0.047 | I -1.1 ± 0.095 | C 0.046 ± 0.073 | R -0.768 ± 0.042 | K -0.689 ± 0.075 | V -0.684 ± 0.049 | N -0.674 ± 0.11 | F -1.38 ± 0.32 | G -0.664 ± 0.047 | Y -0.449 ± 0.12 | D -0.6 ± 0.1 | P -0.671 ± 0.071 | M -0.749 ± 0.073 | W -1.12 ± 0.1 | L -1.04 ± 0.066 | S -0.204 ± 0.041
